# Measurements taken from patent publication US20060172377.
# Legend:
# [1] = test system: T1, SF370.1 recombinase (Streptococcus pyogenes phage SF370.1); experiment: cell_activity; conditions: integration of attP (N3) plasmid at pseudo attB; 9 clones without recombinase; 35 of 100 rescued at this site
# T1 sequence: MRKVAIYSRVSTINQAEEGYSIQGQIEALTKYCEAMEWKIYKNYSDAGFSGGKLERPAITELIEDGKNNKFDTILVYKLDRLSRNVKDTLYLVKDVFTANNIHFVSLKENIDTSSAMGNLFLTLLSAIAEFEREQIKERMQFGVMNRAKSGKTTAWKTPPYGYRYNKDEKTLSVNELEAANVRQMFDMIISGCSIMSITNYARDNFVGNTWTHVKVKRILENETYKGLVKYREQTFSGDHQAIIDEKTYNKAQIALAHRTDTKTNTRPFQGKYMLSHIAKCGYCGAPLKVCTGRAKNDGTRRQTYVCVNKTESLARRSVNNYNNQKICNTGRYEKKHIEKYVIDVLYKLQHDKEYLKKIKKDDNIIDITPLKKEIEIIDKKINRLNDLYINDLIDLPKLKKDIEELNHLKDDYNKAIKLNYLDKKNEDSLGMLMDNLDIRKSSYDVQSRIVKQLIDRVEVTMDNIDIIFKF
# [2] = target: T2, SPβc2 recombinase (yokA) (Bacillus subtilis phage SPβc2) (UniProt O32006); experiment: cell_activity; conditions: integration of attP (N1) plasmid at pseudo attB; 0 clones without recombinase; 15 integrations at this site
# T2 sequence: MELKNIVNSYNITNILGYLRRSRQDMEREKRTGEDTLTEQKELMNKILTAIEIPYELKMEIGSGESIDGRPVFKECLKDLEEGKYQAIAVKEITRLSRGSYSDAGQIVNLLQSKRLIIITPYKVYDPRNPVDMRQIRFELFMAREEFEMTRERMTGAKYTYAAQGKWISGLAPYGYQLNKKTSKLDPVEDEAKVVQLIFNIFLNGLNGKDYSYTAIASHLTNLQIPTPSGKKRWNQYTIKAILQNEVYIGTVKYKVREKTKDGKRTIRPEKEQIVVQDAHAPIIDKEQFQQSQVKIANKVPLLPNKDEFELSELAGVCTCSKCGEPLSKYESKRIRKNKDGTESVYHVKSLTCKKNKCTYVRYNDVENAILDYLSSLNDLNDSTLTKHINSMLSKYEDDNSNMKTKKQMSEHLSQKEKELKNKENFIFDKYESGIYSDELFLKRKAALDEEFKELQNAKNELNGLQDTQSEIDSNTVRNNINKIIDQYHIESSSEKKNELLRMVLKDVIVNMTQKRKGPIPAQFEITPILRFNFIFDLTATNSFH
Substance,activity (hygromycinR clones) [1],activity (hygromycinR clones) [2]
SF370.1 human pseudo attB,> 100,
SPβc2 human pseudo attB,,> 100
